Target: T1, receptor-binding domain of the SARS-CoV-2 spike protein fused to the maltose-binding protein (SARS-CoV-2, wild-type (Wuhan-Hu-1 …, UniProt P0DTC2))
T1 construct: also called MBP-RBD; RBD-MBP
Assay: BLI
Details: both partners purified

B1: VHH72 nanobody (VHH)
VHH: QVQLQESGGGLVQAGGSLRLSCAASGRTFSEYAMGWFRQAPGKEREFVATISWSGGSTYYTDSVKGRFTISRDNAKNTVYLQMNSLKPDDTAVYYCAAAGLGTVVSEWDYDYDYWGQGTQVTVSS
notes: not shown: ecotin, N-terminal, cleaved; His-tag, N-terminal, cleaved
B1: binds.
